Reference: article PMC9482650, “Quantitative fragmentomics allow affinity mapping of interactomes” (Nature Communications, 2022)

T1: CARD11, Q9BXL7
T1 sequence (Q9BXL7 662-765, limits assumed, looked up): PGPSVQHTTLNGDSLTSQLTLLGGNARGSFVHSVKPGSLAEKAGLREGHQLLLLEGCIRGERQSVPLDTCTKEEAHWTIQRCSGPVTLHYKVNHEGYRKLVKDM

T2: MPDZ_5, O75970
T2 sequence (O75970 695-796, limits assumed, looked up): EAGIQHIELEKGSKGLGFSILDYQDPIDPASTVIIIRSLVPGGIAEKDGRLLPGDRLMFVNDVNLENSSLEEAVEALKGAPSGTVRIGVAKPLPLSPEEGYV

T3: MPP7, Q5T2T1
T3 sequence (Q5T2T1 134-230, limits assumed, looked up): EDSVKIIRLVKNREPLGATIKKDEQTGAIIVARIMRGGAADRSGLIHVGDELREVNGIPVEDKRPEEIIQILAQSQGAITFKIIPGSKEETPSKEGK

T4: RADIL, Q96JH8
T4 sequence (Q96JH8 971-1071, limits assumed, looked up): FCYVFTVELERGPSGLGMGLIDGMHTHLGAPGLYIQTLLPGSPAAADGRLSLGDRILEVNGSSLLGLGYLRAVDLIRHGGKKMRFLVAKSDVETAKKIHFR

T5: DLG3_3, Q92796
T5 sequence (Q92796 374-475, limits assumed, looked up): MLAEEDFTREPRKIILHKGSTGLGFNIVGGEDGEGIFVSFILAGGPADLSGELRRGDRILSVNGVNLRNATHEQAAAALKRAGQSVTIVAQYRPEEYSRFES

T6: GRIP1_3, Q9Y3R0
T6 sequence (Q9Y3R0 247-346, limits assumed, looked up): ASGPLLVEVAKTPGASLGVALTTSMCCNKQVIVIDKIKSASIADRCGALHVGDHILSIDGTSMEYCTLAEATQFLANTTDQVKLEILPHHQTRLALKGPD

T7: SYNJ2BP, P57105
T7 sequence (P57105 8-110, limits assumed, looked up): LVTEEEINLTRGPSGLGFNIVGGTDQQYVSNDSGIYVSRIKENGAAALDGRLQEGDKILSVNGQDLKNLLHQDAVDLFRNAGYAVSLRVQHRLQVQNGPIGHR

T8: LRRC7, Q96NW7
T8 sequence (Q96NW7 1440-1537, limits assumed, looked up): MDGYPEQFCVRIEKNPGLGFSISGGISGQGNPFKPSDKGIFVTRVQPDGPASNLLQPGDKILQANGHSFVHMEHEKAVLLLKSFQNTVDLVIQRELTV

T9: DLG3_2, Q92796
T9 sequence (Q92796 221-321, limits assumed, looked up): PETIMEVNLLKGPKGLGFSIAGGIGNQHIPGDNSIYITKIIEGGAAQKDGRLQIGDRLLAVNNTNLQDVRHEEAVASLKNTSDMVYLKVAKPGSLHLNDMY

T10: RHPN1, Q8TCX5
T10 sequence (Q8TCX5 508-602, limits assumed, looked up): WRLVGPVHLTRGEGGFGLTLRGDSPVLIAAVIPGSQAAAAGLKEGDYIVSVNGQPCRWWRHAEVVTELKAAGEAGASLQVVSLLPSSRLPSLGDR

T11: ARHGEF11, O15085
T11 sequence (O15085 42-136, limits assumed, looked up): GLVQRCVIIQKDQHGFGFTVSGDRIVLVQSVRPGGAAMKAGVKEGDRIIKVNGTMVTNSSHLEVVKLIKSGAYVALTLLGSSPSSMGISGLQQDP

T12: SIPA1L2, Q9P2F8
T12 sequence (Q9P2F8 945-1036, limits assumed, looked up): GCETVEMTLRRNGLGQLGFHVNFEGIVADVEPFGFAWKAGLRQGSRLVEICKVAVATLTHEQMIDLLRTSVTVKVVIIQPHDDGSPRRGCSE

T13: DFNB31_1, Q9P202
T13 sequence (Q9P202 135-233, limits assumed, looked up): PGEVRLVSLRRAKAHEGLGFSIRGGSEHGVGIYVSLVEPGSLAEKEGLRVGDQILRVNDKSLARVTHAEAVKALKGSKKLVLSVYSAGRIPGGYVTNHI


How the values were obtained:
Experiment in all cases: holdup assay
Set-up in all cases: key: below the threshold = too weak to quantify, mostly under pKd 3.1 to 4
Conditions in all cases: plain residues with an end cap or a label only (N-terminal biotin on a linker: ado-ado)
CARD11, Q9BXL7 = target: T1, CARD11, Q9BXL7
MPDZ_5, O75970 = target: T2, MPDZ_5, O75970
MPP7, Q5T2T1 = target: T3, MPP7, Q5T2T1
ARHGEF12, Q9NZN5-2 = target: ARHGEF12, Q9NZN5-2
RADIL, Q96JH8 = target: T4, RADIL, Q96JH8
NHERF4_2, Q86UT5 = target: NHERF4_2, Q86UT5
DLG3_3, Q92796 = target: T5, DLG3_3, Q92796
GRIP1_3, Q9Y3R0 = target: T6, GRIP1_3, Q9Y3R0
GRIP2_6, Q9C0E4 = target: GRIP2_6, Q9C0E4
HTRA1, Q92743 = target: HTRA1, Q92743
FRMPD2_3, Q68DX3 = target: FRMPD2_3, Q68DX3
SYNJ2BP, P57105 = target: T7, SYNJ2BP, P57105
LRRC7, Q96NW7 = target: T8, LRRC7, Q96NW7
DLG3_2, Q92796 = target: T9, DLG3_2, Q92796
MAGI2_2, Q86UL8 = target: MAGI2_2, Q86UL8
RHPN1, Q8TCX5 = target: T10, RHPN1, Q8TCX5
SNX27, Q96L92 = target: SNX27, Q96L92
TJP1_3, Q07157 = target: TJP1_3, Q07157
Inadl_6, Q8NI35 = target: Inadl_6, Q8NI35
ARHGEF11, O15085 = target: T11, ARHGEF11, O15085
Inadl_1, Q8NI35 = target: Inadl_1, Q8NI35
SIPA1L2, Q9P2F8 = target: T12, SIPA1L2, Q9P2F8
GRIP2_5, Q9C0E4 = target: GRIP2_5, Q9C0E4
DFNB31_1, Q9P202 = target: T13, DFNB31_1, Q9P202

FRMPD2_3, Q68DX3, sequence (Q68DX3 1073-1166): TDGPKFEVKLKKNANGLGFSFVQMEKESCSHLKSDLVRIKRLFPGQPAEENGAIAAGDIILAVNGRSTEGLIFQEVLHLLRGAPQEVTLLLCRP
ARHGEF12, Q9NZN5-2, sequence (Q9NZN5 other isoform, or with tags, fused parts or gaps): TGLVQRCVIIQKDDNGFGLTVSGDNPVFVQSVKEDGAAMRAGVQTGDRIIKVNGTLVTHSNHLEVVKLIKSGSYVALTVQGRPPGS
MAGI2_2, Q86UL8, sequence (Q86UL8 410-522): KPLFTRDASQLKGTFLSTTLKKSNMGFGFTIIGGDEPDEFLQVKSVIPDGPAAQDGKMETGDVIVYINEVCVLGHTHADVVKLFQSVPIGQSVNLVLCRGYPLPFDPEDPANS
Inadl_1, Q8NI35, sequence (Q8NI35 113-229): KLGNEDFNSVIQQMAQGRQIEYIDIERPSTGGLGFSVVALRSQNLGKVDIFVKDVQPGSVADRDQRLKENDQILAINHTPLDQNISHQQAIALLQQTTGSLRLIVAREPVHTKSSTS
Inadl_6, Q8NI35, sequence (Q8NI35 1058-1167): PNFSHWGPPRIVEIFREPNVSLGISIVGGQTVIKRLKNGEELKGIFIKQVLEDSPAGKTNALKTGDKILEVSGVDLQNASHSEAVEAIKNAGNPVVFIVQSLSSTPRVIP
GRIP2_6, Q9C0E4, sequence (Q9C0E4 648-740): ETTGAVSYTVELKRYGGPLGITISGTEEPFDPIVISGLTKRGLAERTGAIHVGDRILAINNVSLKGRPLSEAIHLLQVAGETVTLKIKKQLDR
GRIP2_5, Q9C0E4, sequence (Q9C0E4 544-642): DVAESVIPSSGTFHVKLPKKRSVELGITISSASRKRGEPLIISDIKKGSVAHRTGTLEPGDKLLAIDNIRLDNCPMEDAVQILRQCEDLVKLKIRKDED
NHERF4_2, Q86UT5, sequence (Q86UT5 220-308): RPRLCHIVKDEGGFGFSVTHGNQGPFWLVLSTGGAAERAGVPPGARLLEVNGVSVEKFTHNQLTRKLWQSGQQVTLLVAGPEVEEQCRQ
HTRA1, Q92743, sequence (Q92743 360-477): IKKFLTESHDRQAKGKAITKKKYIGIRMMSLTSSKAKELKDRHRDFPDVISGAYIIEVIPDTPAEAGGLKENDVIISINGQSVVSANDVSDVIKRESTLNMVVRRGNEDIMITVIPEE
TJP1_3, Q07157, sequence (Q07157 416-512): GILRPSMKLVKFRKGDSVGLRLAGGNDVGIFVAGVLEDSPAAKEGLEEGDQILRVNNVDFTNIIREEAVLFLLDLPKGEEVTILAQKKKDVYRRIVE

Row | pKd (CARD11, Q9BXL7) | pKd (MPDZ_5, O75970) | pKd (MPP7, Q5T2T1) | pKd (ARHGEF12, Q9NZN5-2) | pKd (RADIL, Q96JH8) | pKd (NHERF4_2, Q86UT5) | pKd (DLG3_3, Q92796) | pKd (GRIP1_3, Q9Y3R0) | pKd (GRIP2_6, Q9C0E4) | pKd (HTRA1, Q92743) | pKd (FRMPD2_3, Q68DX3) | pKd (SYNJ2BP, P57105) | pKd (LRRC7, Q96NW7) | pKd (DLG3_2, Q92796) | pKd (MAGI2_2, Q86UL8) | pKd (RHPN1, Q8TCX5) | pKd (SNX27, Q96L92) | pKd (TJP1_3, Q07157) | pKd (Inadl_6, Q8NI35) | pKd (ARHGEF11, O15085) | Binder | other results
1 | below the threshold | below the threshold | below the threshold | below the threshold | 3.98 | below the threshold | below the threshold | below the threshold | 3.59 | 4.61 | below the threshold | below the threshold | below the threshold | below the threshold | below the threshold | below the threshold | below the threshold | below the threshold | below the threshold | below the threshold | MHIQEKGFHV [EPHA6, Q9UF33] | pKd (Inadl_1, Q8NI35): below the threshold; pKd (SIPA1L2, Q9P2F8): below the threshold; pKd (GRIP2_5, Q9C0E4): below the threshold; pKd (DFNB31_1, Q9P202): below the threshold
2 | below the threshold | below the threshold | below the threshold | below the threshold | 3.97 | below the threshold | 4.02 | below the threshold | below the threshold | 4.3 | below the threshold | 4.3 | below the threshold | 4.77 | 5.22 | 3.89 | 4.62 | below the threshold | 3.56 | 3.69 | KPGKGSETVV [FZD4, Q9ULV1] | pKd (Inadl_1, Q8NI35): below the threshold; pKd (SIPA1L2, Q9P2F8): below the threshold; pKd (GRIP2_5, Q9C0E4): below the threshold; pKd (DFNB31_1, Q9P202): 3.91
3 | below the threshold | below the threshold | 3.53 | below the threshold | 4.59 | below the threshold | 3.63 | below the threshold | below the threshold | 4.49 | 3.49 | below the threshold | below the threshold | 4.22 | below the threshold | 3.5 | 3.94 | below the threshold | 3.57 | 3.96 | SLNANEVEWF [RNF130, Q86XS8] | pKd (Inadl_1, Q8NI35): 3.52; pKd (SIPA1L2, Q9P2F8): 3.54; pKd (GRIP2_5, Q9C0E4): below the threshold; pKd (DFNB31_1, Q9P202): below the threshold
